Results taken from article doi:10.1101/2022.02.28.482286 (bioRxiv, 2022).
Blank lines part the entries; values can stand above or below the binder they belong to.

Tests used:
Assay in all cases: cryo-EM structure
[1] = biological target: T1, subunit ABC27 (S. cerevisiae, UniProt P20434 1-215)
T1 sequence (looked up): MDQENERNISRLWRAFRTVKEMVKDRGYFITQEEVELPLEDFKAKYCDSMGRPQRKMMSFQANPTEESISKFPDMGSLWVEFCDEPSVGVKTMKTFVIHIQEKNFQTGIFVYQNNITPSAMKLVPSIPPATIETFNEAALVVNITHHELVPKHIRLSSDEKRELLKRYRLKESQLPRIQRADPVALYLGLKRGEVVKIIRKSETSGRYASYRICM

[2] = biological target: T2, Pol III subunit C160 (S. cerevisiae, UniProt P04051 1-1460)
T2 sequence (looked up): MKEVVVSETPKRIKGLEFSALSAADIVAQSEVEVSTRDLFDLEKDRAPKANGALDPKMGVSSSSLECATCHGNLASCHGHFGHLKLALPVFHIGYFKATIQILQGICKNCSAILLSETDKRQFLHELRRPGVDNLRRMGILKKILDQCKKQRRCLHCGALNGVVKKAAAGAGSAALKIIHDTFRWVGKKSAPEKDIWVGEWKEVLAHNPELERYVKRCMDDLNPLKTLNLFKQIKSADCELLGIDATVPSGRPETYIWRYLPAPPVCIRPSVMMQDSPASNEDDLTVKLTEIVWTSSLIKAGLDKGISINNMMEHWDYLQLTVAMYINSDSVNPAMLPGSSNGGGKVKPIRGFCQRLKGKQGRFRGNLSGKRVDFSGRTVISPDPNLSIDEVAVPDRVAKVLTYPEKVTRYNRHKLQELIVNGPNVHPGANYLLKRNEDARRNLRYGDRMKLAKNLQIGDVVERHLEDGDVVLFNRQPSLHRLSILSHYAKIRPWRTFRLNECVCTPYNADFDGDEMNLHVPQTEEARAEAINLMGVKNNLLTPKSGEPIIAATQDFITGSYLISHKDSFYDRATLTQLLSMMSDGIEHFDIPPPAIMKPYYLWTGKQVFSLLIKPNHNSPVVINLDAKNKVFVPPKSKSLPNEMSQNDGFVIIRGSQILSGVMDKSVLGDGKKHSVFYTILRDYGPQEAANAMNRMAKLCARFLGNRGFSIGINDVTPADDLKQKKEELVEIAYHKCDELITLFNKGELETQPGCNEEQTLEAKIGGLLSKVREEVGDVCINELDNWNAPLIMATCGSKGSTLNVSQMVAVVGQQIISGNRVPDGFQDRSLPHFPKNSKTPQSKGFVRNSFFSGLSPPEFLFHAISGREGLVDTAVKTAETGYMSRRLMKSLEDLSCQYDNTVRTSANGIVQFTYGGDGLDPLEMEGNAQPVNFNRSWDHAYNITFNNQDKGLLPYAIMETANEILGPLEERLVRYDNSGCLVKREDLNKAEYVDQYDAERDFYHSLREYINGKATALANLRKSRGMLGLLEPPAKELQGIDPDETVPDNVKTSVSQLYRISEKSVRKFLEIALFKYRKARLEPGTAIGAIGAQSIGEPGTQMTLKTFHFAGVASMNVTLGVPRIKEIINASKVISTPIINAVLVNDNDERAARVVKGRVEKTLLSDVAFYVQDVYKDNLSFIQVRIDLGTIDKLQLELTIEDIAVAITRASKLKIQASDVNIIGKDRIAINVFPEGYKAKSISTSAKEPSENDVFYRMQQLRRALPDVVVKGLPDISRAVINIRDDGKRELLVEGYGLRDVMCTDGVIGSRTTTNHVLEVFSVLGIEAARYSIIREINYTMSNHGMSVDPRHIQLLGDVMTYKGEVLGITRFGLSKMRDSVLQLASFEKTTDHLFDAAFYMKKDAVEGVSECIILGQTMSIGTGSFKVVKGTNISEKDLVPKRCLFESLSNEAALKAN

[3] = biological target: T3, Pol III subunit C128 (S. cerevisiae, UniProt P22276 1-1149)
T3 sequence (looked up): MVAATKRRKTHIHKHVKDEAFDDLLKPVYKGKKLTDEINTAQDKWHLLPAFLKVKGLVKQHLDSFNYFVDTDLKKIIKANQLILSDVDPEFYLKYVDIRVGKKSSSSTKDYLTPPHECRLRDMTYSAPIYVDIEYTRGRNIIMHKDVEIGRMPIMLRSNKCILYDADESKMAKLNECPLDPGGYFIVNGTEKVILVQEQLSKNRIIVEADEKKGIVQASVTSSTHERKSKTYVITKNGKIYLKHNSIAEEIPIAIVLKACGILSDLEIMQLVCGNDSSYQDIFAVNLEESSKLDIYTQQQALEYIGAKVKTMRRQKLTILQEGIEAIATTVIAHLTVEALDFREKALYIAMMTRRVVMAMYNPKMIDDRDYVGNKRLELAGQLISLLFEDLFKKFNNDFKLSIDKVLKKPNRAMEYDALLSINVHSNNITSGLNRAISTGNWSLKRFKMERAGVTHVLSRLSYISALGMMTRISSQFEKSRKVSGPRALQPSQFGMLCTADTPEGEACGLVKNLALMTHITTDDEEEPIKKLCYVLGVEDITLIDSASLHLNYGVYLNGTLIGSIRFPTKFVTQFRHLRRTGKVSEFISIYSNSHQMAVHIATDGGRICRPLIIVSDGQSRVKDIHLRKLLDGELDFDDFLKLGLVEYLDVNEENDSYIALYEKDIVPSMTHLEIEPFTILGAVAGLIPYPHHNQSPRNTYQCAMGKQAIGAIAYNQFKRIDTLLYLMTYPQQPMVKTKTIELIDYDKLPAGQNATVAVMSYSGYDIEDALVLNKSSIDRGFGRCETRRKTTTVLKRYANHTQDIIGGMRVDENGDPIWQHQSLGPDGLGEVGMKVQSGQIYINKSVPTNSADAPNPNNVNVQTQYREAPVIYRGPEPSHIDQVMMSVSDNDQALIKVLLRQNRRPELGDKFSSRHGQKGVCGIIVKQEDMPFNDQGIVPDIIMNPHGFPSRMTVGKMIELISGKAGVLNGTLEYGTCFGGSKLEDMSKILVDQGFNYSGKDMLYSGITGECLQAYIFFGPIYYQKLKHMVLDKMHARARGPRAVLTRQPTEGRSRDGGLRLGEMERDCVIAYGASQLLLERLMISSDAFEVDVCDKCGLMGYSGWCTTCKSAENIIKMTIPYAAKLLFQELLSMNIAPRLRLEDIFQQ

[4] = biological target: T4, Pol III subunit C53 (S. cerevisiae, UniProt P25441 1-422)
T4 sequence (looked up): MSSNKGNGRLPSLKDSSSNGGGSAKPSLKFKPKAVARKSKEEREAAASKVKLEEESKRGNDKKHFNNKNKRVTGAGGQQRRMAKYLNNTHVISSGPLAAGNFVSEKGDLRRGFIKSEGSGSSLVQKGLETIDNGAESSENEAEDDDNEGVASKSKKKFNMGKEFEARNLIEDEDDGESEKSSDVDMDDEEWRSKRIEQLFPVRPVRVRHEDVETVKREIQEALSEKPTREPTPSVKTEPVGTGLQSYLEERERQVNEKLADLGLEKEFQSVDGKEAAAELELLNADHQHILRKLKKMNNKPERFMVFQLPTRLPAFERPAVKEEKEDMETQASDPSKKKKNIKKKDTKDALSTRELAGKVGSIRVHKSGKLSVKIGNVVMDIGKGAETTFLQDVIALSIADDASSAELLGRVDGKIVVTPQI

binding result [1]: binds
binding result [2]: binds
B1: Pol III subunit C11 (natural protein, S. cerevisiae, UniProt Q04307 1-110, looked up)
chain: MLSFCPSCNNMLLITSGDSGVYTLACRSCPYEFPIEGIEIYDRKKLPRKEVDDVLGGGWDNVDQTKTQCPNYDTCGGESAYFFQLQIRSADEPMTTFYKCVNCGHRWKEN

binding result [3]: binds
B2: C53-C37 heterodimer (complex, S. cerevisiae)
chain 1: T4 sequence (looked up)
chain 2: MSIDNKLFVTEEDEEDRTQDRADVEDESNDIDMIADENGTNSAIANEQEEKSEEVKAEDDTGEEEEDDPVIEEFPLKISGEEESLHVFQYANRPRLVGRKPAEHPFISAARYKPKSHLWEIDIPLDEQAFYNKDKAESEWNGVNVQTLKGVGVENNGQYAAFVKDMQVYLVPIERVAQLKPFFKYIDDANVTRKQEDARRNPNPSSQRAQVVTMSVKSVNDPSQNRLTGSLLAHKVADEEANIELTWAEGTFEQFKDTIVKEAEDKTLVALEKQEDYIDNLV

binding result [4]: binds
binding result [3]: binds
B3: Pol III subunit C37 (natural protein, S. cerevisiae, UniProt P36121 1-282, looked up)
chain: B2 chain 2
